From publication PMC7849165 (The EMBO Journal, 2020)
No end group written: not given here.

Target: T1, N-terminal cytosolic domain of Sec62 (Sec62 domain; residues 18-145) (S. cerevisiae, UniProt P21825 18-145)
T1 sequence (looked up): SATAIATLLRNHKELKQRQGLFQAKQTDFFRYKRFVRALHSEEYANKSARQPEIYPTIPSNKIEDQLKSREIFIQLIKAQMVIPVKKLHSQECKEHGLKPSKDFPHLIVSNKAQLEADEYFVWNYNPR
Test: pull-down

binding result: binds
Binder: VYSEEDDEYSTDDDETESDDESDASDY (peptide, UniProt P14906 621-647, looked up, also: biotin label, position not given here) [Sec63-C1 peptide (residues 621-647 of Sec63), biotin-labeled]
